# Data as given in PMC5746249, “Novel linear motif filtering protocol reveals the role of the LC8 dynein light chain in the Hippo pathway” (PLoS Computational Biology, 2017).
# B1: WWC2 LC8 binding motif peptide, start 962 (peptide)
# chain: PTLVDKETNTD
# modifications: core 962-969 printed; 11-mer assumed to add 3 N-terminal residues, as in the S1 Table motif format; termini chemistry not stated
# B2: WWC3 LC8 binding motif peptide, start 208 (peptide)
# chain: QQFCDAGSQTD
# modifications: printed start 208 appears to be in older 1092-aa numbering (current entry +124, so core 332-339); 11-mer assumed to add 3 N-terminal residues, as in the S1 Table motif format
# B3: AMOTL1 LC8 binding motif peptide, start 873 (peptide)
# chain: TGSKDSSTQTD
# modifications: core 873-880 printed; 11-mer assumed to add 3 N-terminal residues, as in the S1 Table motif format; termini chemistry not stated
# B4: WWC2 LC8 binding motif peptide, start 282 (peptide)
# chain: RQTLDAGSQTS
# modifications: core 282-289 printed; 11-mer assumed to add 3 N-terminal residues, as in the S1 Table motif format; termini chemistry not stated
# B5: AMOTL2 LC8 binding motif peptide, start 724 (peptide)
# chain: HGSRDGSTQTE
# modifications: core 724-731 printed; 11-mer assumed to add 3 N-terminal residues, as in the S1 Table motif format; termini chemistry not stated
# B6: AMOT LC8 binding motif peptide, start 860 (peptide)
# chain: TGSRDCSTQTE
# modifications: core 860-867 printed; 11-mer assumed to add 3 N-terminal residues, as in the S1 Table motif format; termini chemistry not stated
# B7: WWC1 (KIBRA) LC8 binding motif peptide, start 278 (peptide)
# chain: KQYLDVSSQTD
# modifications: core 278-285 printed; S1 Table prints the 11-mer KQYLDVSSQTD starting at 275; termini chemistry not stated
# B8: WWC1 (KIBRA) LC8 binding motif peptide, start 887 (peptide)
# chain: ALKVDKETNTE
# modifications: core 887-894 printed; 11-mer assumed to add 3 N-terminal residues, as in the S1 Table motif format; termini chemistry not stated
# B9: WWC3 LC8 binding motif peptide, start 867 (peptide)
# chain: PLKVDKETNTE
# modifications: printed start 867 appears to be in older 1092-aa numbering (current entry +124, so core 991-998); 11-mer assumed to add 3 N-terminal residues, as in the S1 Table motif format
# Molecular target: LC8 dynein light chain (DYNLL2), full-length, His6-tagged (human (by the printed accession Q96FJ2), UniProt Q96FJ2 1-89)
# Assay: SPR; His6-LC8 immobilised on Ni2+-NTA HTG sensor chip (ProteOn XPR36) at three densities (1200, 900, 600 RU); peptides injected at five concentrations, 60 ul/min; 20 mM Hepes, 150 mM NaCl, 0.05% Tween-20, 0.1 mM TCEP, 50 uM EDTA, pH 7.5; 1:1 Langmuir global fit; apparent Kd, mean of kinetic and equilibrium analysis
# Details: both partners purified
# Chain of LC8 dynein light chain (DYNLL2), full-length, His6-tagged (Q96FJ2 whole entry, one chain of several): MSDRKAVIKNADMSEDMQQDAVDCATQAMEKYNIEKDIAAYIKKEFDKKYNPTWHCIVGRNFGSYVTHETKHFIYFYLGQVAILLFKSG
row,Kd [µM],Binder
1,17.6,B1
2,5.34,B2
3,1.55,B3
4,32.7,B4
5,1.98,B5
6,1.2,B6
7,0.45,B7
8,4,B8
9,3.5,B9
